Test results as given in patent US20230303667A1 (EMORY UNIVERSITY, published 2023).

T1: Ebola Zaire (Kikwit strain) glycoprotein (Ebola Zaire (Kikwit strain), UniProt P87666 33-676)
T1 sequence: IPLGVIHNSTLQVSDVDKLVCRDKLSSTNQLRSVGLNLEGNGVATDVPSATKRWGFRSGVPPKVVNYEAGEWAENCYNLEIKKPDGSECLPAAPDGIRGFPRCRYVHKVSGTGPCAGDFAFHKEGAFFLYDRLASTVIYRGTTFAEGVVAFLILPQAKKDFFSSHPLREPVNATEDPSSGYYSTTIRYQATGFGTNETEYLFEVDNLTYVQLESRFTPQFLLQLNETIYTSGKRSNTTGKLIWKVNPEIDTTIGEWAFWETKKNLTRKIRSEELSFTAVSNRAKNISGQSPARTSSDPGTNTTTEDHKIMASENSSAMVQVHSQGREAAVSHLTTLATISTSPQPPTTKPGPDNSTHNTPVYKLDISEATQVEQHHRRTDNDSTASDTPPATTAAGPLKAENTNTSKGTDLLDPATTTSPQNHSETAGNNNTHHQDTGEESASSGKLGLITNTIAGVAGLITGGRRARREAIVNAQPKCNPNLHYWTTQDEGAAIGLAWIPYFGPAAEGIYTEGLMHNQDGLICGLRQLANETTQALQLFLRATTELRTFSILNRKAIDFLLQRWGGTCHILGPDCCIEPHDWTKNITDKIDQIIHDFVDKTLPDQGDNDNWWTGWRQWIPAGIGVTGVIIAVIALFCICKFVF

B1: 2.1.1D05 (antibody, V domains shown)
VH: EVQLVESGGGLVKPGGSLRLSCAASGFTFSNAWMNWVRQAPGKGLEWVGRIKSKTDGGAADYAAPVKGRFTISRDDSKNTLYLQMNSLKTEDTAVYFCTTVYRYNYDSVWGQGTLVTVSS
VL: QSVLTQPPSVSGAPGQRVTISCTGSSSNIGAGYDVYWYQQLPGTAPKLLIYGNSNRPSGVPDRFSGSKSGTSASLAITGLQAEDEADYYCQSFDSSLRDSWVFGGGTKLTVL
B2: 5.1.10B3 (antibody, V domains shown)
VH: EVQLVESGGGLVQPGGSLRLSCAASGFTFRSYDMHWVRQATGKGLEWVSAIGTAGDTYYPGSVKGRFTISRENAKNSLYLQMNSLRAEDTAVYYCARVRFGDTAVDYWGQGTLVTVSS
VL: DIQMTQSPSSLSASVGDRVTITCRASQSISSFLNWHQQKPGKAPKLLIYAASSLQSGVPSRFSGSGSGTDFTLTISSLQPEDFAIYYCQQSYISPFTFGPGTKVDIK
B3: 9.6.3D06 (antibody, V domains shown)
VH: EVQLLESGGGLVQPGGSLRLSCAASGFTFSKYAMIWVRQAPGKGLQWVAGINKSGGRTYYADSVRGRFTISRDNSKNTLYLQMKSLRADDTAMYYCAKEGSPLSDVLLVAAPFGWFDPWGQGTLVTVSS
VL: DIQMTQSPSTLSASVGDRVTITCRASQRINNLVAWYQQKPGKAPKVMIYDASSLKSGVPSRFSGSGSGTEFTLTISSLQPDDFATYFCQQYDTDSGWTFGQGTKVEIK
B4: 2.1.1D07 (antibody, V domains shown)
VH: EVQLLESGGGLVQPGGSLRLSCAASGFTFSTYGMSWVRQAPGKGLEWVSGISGSGGITYYADSVRGRFTISRDNSKNTLYLRMNSLRAEDTAVYYCAKVGEYYDFWSGYSPFEYWGQGTL
VL: EIVLTQSPGTLSLSPGERATLSCRASQSVSSSYLAWYQQKPGQAPRLLIYGAFNRATGIPDRFSGSGSGTDFTLTISRLEPEDFAVYYCQLYGSSPWTFGQGTKVEIK
B5: 5.6.1A02 (antibody, V domains shown)
VH: EVQLVESGGGLIQPGGSLRLSCAASGFAVRSNYLSWVRQAPGKGLEWVSLIYSGGLTAYADSVEGRFTISRDNSKNTLYLQMNSLRVEDTALYYCARVASSAGTFYYGMDVWGQGTTVTVSS
VL: not shown

Biological target: T1, Ebola Zaire (Kikwit strain) glycoprotein
Test: cell-based or functional assay

Binder | PRNT50 (ug/ml) for Ebola Zaire (Kikwit strain)
B1 | 3.13 µg/mL
B2 | 3.13 µg/mL
B3 | 1.57 µg/mL
B4 | 6.25 µg/mL
B5 | 0.195 µg/mL
